Non-standard residues stand in square brackets, D forms with d. No end group written: not given here. *: point of attachment. Propanoyl(3-(3-pyridyl)) = O=C(CCc1cccnc1)*; Arg(Me) = CNC(=N)NCCC[C@H](N)C(=O)O; d4Pal = N[C@H](Cc1ccncc1)C(=O)O; azaGly = NNC(=O)O
Key:
[1] = molecular target: T1, human OT7T175 (metastin receptor) (human, UniProt Q969F8 1-398); assay: cell-based or functional assay
[2] = molecular target: human OT7T175 (metastin receptor) (human) (UniProt Q969F8); assay: cell-based or functional assay
Chain of human OT7T175 (metastin receptor) (human) (Q969F8 whole entry L364H): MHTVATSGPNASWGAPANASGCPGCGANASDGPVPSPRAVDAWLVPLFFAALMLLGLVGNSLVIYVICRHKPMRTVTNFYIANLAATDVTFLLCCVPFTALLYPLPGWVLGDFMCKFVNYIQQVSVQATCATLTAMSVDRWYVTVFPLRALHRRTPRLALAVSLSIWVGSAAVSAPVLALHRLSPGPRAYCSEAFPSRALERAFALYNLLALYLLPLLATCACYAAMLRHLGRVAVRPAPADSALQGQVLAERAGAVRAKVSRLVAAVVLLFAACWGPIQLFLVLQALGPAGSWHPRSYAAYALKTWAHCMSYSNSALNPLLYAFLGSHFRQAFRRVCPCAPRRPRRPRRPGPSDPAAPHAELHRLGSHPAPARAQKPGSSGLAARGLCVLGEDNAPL

[3] = molecular target: human OT7T175 (metastin receptor) (human) (UniProt Q969F8); assay: competition with Cy-5 metastin (40-54) on hOT7T175-CHO cells, FMAT
[4] = molecular target: T1, human OT7T175 (metastin receptor); assay: as above
[5] = molecular target: T1, human OT7T175 (metastin receptor); assay: cell-based or functional assay; remark: listed apart in the source
[6] = molecular target: T1, human OT7T175 (metastin receptor); assay: cell-based or functional assay; remark: listed apart in the source
[7] = molecular target: T1, human OT7T175 (metastin receptor); assay: cell-based or functional assay; remark: listed apart in the source

T1 sequence (Q969F8 whole entry L364H): as above

des(4-5)-Boc-MS10 (peptide)
Ca ion level-increasing activity (FLIPR) (x Metastin (1-54)) [1]: 1

des(4-5)-MS10 (peptide)
Ca ion level-increasing activity (FLIPR) (x Metastin (1-54)) [1]: 1

[D-Tyr1,D-Asn2,D-Trp3,AzaGly7,Arg(Me)9]MS10 (peptide)
Ca ion level-increasing activity (FLIPR) (x Metastin (1-54)) [2]: 1 | IC50 [3]: 49 nM

[D-Tyr1,D-Asn2,D-Trp3,Arg(Me)9]MS10 (peptide)
Ca ion level-increasing activity (FLIPR) (x Metastin (1-54)) [2]: 1

B1: des(1-3)-3-(3-Pyridyl)propionyl-[AzaGly7,Arg(Me)9]MS10 (peptide)
peptide: {Propanoyl(3-(3-pyridyl))}-NSF[azaGly]L[Arg(Me)]F-NH2
SMILES: CNC(=N)NCCC[C@H](NC(=O)[C@H](CC(C)C)NC(=O)NNC(=O)[C@H](Cc1ccccc1)NC(=O)[C@H](CO)NC(=O)[C@H](CC(N)=O)NC(=O)CCc1cccnc1)C(=O)N[C@@H](Cc1ccccc1)C(N)=O
notes: also called Compound No. 322
IC50 [4]: 54 nM | Ca ion level-increasing activity (FLIPR) [5]: 1 x Metastin (1-54) | Ca ion level-increasing activity (FLIPR, 40 s) [6]: 5.4 EC50/MS10 EC50 | cell growth inhibition activity, IC50 [7]: 71.9 nM

B2: des(1)-[D-Tyr2,D-Pya(4)3,AzaGly7,Arg(Me)9]MS10 (peptide)
peptide: [dY][d4Pal]NSF[azaGly]L[Arg(Me)]F-NH2
modifications: N-terminus assumed
SMILES: CNC(=N)NCCC[C@H](NC(=O)[C@H](CC(C)C)NC(=O)NNC(=O)[C@H](Cc1ccccc1)NC(=O)[C@H](CO)NC(=O)[C@H](CC(N)=O)NC(=O)[C@@H](Cc1ccncc1)NC(=O)[C@H](N)Cc1ccc(O)cc1)C(=O)N[C@@H](Cc1ccccc1)C(N)=O
notes: also called Compound No. 305; KiSS1-305
IC50 [4]: 1.3 nM | Ca ion level-increasing activity (FLIPR) [5]: 5 x Metastin (1-54) | Ca ion level-increasing activity (FLIPR, 40 s) [6]: 2 EC50/MS10 EC50 | cell growth inhibition activity, IC50 [7]: 8.94 nM

From patent publication US20090298765A1 (Takeda / Millennium, published 2009)
